Reference: the RNAGym collection of RNA variant scans (doi:10.7554/elife.80360)

B1: HDV Ribozyme (parent)
chain: GGCCGGCAUGGUCCCAGCCUCCUCGCUGGCGCCGGCUGGGCAACAUUCCGAGGGGACCGUCCCCUCGGUAAUGGCGAAUGGGACCCA

Variants of: B1
Test: self-cleavage, relative activity (ratio to wild type); higher = more cleavage; co-transcriptional

Row | Variant | self-cleavage
1 | C49A A70U | 0.812
2 | G50A G68U | 0.767
3 | C48U A87C | 0.989
4 | C49G C85G | 0.712
5 | C49G C85U | 0.912
6 | C49G C85A | 0.789
7 | C49A C61G | 0.816
8 | C48U C85G | 0.941
9 | G50C G68A | 0.563
10 | G50U A51G | 0.956
11 | G50C A70U | 0.8
12 | G50C A70C | 0.517
13 | G50C A70G | 0.917
14 | G50U A87G | 0.927
15 | G50U A87U | 0.85
16 | C49U C63U | 0.958
17 | G50C A51U | 0.755
18 | G50C A51G | 1.07
19 | C49U G50A | 1.05
20 | C49U G50C | 0.991
21 | C48U U65G | 0.748
22 | C48U U65C | 1.07
23 | G50C C61U | 0.749
24 | G50C C61G | 0.578

Row | Variant | self-cleavage
25 | G50A G53U | 0.727
26 | G50A G53C | 0.759
27 | G50A G53A | 0.803
28 | G50A C62U | 0.926
29 | C49G C62A | 0.739
30 | C49G C62U | 0.831
31 | C49U G80A | 0.4
32 | G50A C75U | 0.178
33 | G50A C75A | 0.178
34 | G50A A70U | 1.05
35 | G50A A70G | 0.763
36 | G50A A70C | 0.763
37 | G50C C64U | 0.728
38 | G50C C64G | 0.383
39 | C49G C64G | 0.308
40 | C48U C84G | 0.712
41 | C49U C64U | 1.05
42 | C49U A51U | 0.867
43 | C49U A51C | 0.712
44 | C49G G59C | 0.793
45 | C49G G59U | 0.889
46 | C49U A70U | 0.877
47 | C49U A70G | 0.748
48 | C49U A70C | 0.782

Row | Variant | self-cleavage
49 | G50U A78C | 0.373
50 | G50U A78G | 0.776
51 | C49G U65G | 0.489
52 | C49G U65A | 0.573
53 | G50A A77C | 0.227
54 | C49A U72G | 0.443
55 | C49A U72C | 0.32
56 | C49A U72A | 0.225
57 | G50A A87U | 1.08
58 | C49A C75U | 0.175
59 | C49A C75G | 0.128
60 | C49A C57U | 1.15
61 | C49A A71G | 0.81
62 | G50C G59C | 1.16
63 | G50C G59U | 0.932
64 | C49G A77U | 0.604
65 | C49G A77G | 0.536
66 | C49G G76C | 0.982
67 | C49U G55U | 0.909
68 | G50A A83G | 0.99
69 | G50A A83U | 0.486
70 | C48U C63A | 0.791
71 | G50C G76C | 1.08
72 | G50C G76A | 0.915

Row | Variant | self-cleavage
73 | C49G G53A | 0.475
74 | C49G G53C | 0.249
75 | C49G G53U | 0.723
76 | C49G A51U | 0.554
77 | C49G A83C | 0.403
78 | G50C A77C | 0.302
79 | C49U C75G | 0.0723
80 | C49U C75U | 0.13
81 | G50A C63A | 0.436
82 | G50A C63G | 0.0475
83 | C48U G67U | 1.27
84 | C48U G67C | 1.01
85 | C49G C66A | 0.773
86 | G50A U79G | 0.629
87 | G50A U79A | 0.88
88 | G50A U79C | 0.486
89 | C49A G52U | 0.369
90 | C49A G52A | 0.739
91 | G50C C57A | 1.04
92 | C49U C66A | 0.984
93 | G50C C85A | 0.933
94 | G50C G74C | 0.196
95 | C49U U69C | 0.831
96 | G50A G80A | 0.415

Row | Variant | self-cleavage
97 | G50A G80C | 0.284
98 | C49G C75G | 0.299
99 | C48U A83U | 0.475
100 | C49U C84U | 0.676
101 | C49U G76U | 1.18
102 | C49U G76A | 1.08
103 | G50C U79C | 0.554
104 | G50C U79G | 0.723
105 | G50C U79A | 0.739
106 | G50A C64U | 1.26
107 | G50A C64G | 0.404
108 | G50A C64A | 0.479
109 | C49G G81C | 0.196
110 | C49G U79G | 0.762
111 | C49G U79A | 0.895
112 | C49U G67A | 0.891
113 | C49U G67U | 0.859
114 | C49U A56G | 1.04
115 | C49U A56C | 0.773
116 | G50A G82A | 0.614
117 | G50A G82U | 0.364
118 | C48U G59U | 1.06
119 | G50U A77G | 0.639
120 | C49A G68A | 0.742

Row | Variant | self-cleavage
121 | C48U U72G | 0.639
122 | G50A G54A | 0.726
123 | C49A G54C | 0.843
124 | C49U A87C | 1.05
125 | G50U C57A | 0.911
126 | G50U C57G | 0.986
127 | G50U C57U | 1.17
128 | C49A C62G | 0.128
129 | C48U U60G | 0.776
130 | C48U U60A | 1
131 | C48U G74U | 0.554
132 | C48U G50C | 0.965
133 | C49U G73U | 0.509
134 | C49U G82A | 0.436
135 | G50A C85U | 0.938
136 | G50A C85A | 0.941
137 | G50C C63A | 0.305
138 | G50C C63U | 0.997
139 | G50C C63G | 0.135
140 | C48U C61G | 0.855
141 | C48U C61A | 0.87
142 | G50A A56U | 1.06
143 | G50A C61A | 0.875
144 | C49A C66G | 0.96

Row | Variant | self-cleavage
145 | G50U A83C | 0.375
146 | C49U C86A | 0.793
147 | C49A U65A | 0.751
148 | C49U G52A | 0.96
149 | C49U G52C | 0.866
150 | C49A C86U | 0.795
151 | C49A C86A | 1.22
152 | C49A C64U | 0.831
153 | C49G C61A | 0.848
154 | C49G C61U | 0.432
155 | C48U C58U | 0.904
156 | G50A U60C | 0.945
157 | G50A U60G | 0.514
158 | C48U G53A | 0.888
159 | C49U U65A | 0.966
160 | C48U G76C | 1.16
161 | G50A C58G | 0.909
162 | G50A C58A | 1.12
163 | G50A C58U | 0.919
164 | C49A G50A | 0.929
165 | C49A G50U | 0.816
166 | C49G G52U | 0.48
167 | C48U G82A | 0.532
